Each block holds one binder with its values, some of them ahead of it.
Tests used:
[1] = molecular target: M13 박테리오파지에서 전시되는 스트렙타비딘(streptavidin); test: fluorescence ELISA; plate coated with streptavidin-displaying M13 phage; fusion protein at 10, 50, 100 μg/ml; ex 554 nm / em 581 nm; reference is biotin-bound RFP
[2] = molecular target: M13 박테리오파지에서 전시되는 스트렙타비딘(streptavidin); test: fluorescence ELISA; plate coated with streptavidin-displaying M13 phage; fusion protein at 10, 50, 100 μg/ml; ex 395 nm / em 509 nm; reference is biotin-bound GFP

fold fluorescence against biotin-bound RFP [1]: 2 배 (fold)
B1: (2E9+RFP) (protein, part only; not given: linker, RFP, His tag, part only)
chain, part: ESGGGSVQAGGSLRLSCTASGFTFADSDMGWYRQAPGKERERVAAIDSDGRTSYADSVKGRFTISKDNAKNTLYLQMNSLKPEDTAMYYCAAGVPTYDSSWCSRDYWGKGTQVTVSS

fold fluorescence against biotin-bound GFP [2]: 2 배 (fold)
B2: (2E9+GFP) (protein, part only; not given: linker, GFP, His tag, part only)
chain, part: B1 chain, part

fold fluorescence against biotin-bound RFP [1]: 2 배 (fold)
B3: (2B12+RFP) (protein, part only; not given: linker, RFP, His tag, part only)
chain, part: ESGGGSVQVGESLRLACTASEFTFDDTDVGWYRQAPGNECELVSSINSDGGTYYTDSVKGRFTISLDNGKNTVYLQMDSLKPEDTAVYYCVADAKVKAQALGTLLCRILGNWGQGTQVTVSS

fold fluorescence against biotin-bound GFP [2]: 2 배 (fold)
B4: (2B12+GFP) (protein, part only; not given: linker, GFP, His tag, part only)
chain, part: B3 chain, part

fold fluorescence against biotin-bound GFP [2]: 2 배 (fold)
B5: (53A1+GFP) (protein, part only; not given: linker, GFP, His tag, part only)
chain, part: B3 chain, part

fold fluorescence against biotin-bound RFP [1]: 2 배 (fold)
B6: (53A1+RFP) (protein, part only; not given: linker, RFP, His tag, part only)
chain, part: B3 chain, part
